Experimental findings from the supplement of paper PMC10724198 are described below.

Data set [1] concerns Saccharomyces cerevisiae. Nature of the data set: protein stability index of tFT-peptide fusion (C-terminal peptide) (PSI (0-1 scale)); higher = more stable (slower turnover). As to the method:
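MPS profiling in S. cerevisiae of the tFT-X12 degron library: putative degron peptides plus stable controls, 12 aa, fused to the C-terminus of a sfGFP-mCherry timer. Cells are FACS-sorted into 8 mCherry/sfGFP bins and deep-sequenced. PSI runs from 0 (unstable) to 1 (stable). Backgrounds are wild type, das1Δ and doa10Δ at 30 °C, and wild type, das1Δ, cdc34-1 and cdc53-1 at 37 °C; 2-3 technical replicates each.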

Data set [2] concerns Saccharomyces cerevisiae. The data set is described as above. The conditions noted are these: genetic background: wild type; temperature: 30 C.
The mark [3] stands for this setting: genetic background: cdc34-1, temperature: 37 C.
Where [4] appears, read: genetic background: cdc53-1, temperature: 37 C.
Where [5] appears, read: genetic background: das1 deletion, temperature: 30 C.
Where [6] appears, read: genetic background: das1 deletion, temperature: 37 C.
Where [7] appears, read: genetic background: doa10 deletion, temperature: 30 C.
Where [8] appears, read: genetic background: wild type, temperature: 30 C.
The mark [9] stands for this setting: genetic background: wild type, temperature: 37 C.

± gives the standard deviation of the averaged measurements.
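Further: PSI is a weighted mean of sequencing reads over stability bins, variants kept only with over 10 reads, mCherry proximal and sfGFP distal, peptide attached via GGGS linker.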

Consider AEIVCLTDGLLF, for which the protein stability index in data set [1] (setting [3]) amounted to 0.715 ± 0.012; in data set [1] (setting [4]) it was 0.758 ± 0.038; in data set [1] (setting [5]), 0.623 ± 0.013; in data set [1] (setting [6]), 0.7252 ± 0.0028; in data set [1] (setting [7]), 0.641 ± 0.028; in data set [1] (setting [8]), 0.665 ± 0.024. The protein stability index came out at 0.707 ± 0.0076 in data set [1] (setting [9]) and 0.5 ± 0.2 in data set [2].

On to AFFLLVSLLVSP, for which the protein stability index in data set [1] (setting [3]) came to 0.0637 ± 0.025; in data set [1] (setting [4]), 0.0989 ± 0.021; in data set [1] (setting [5]), 0.122 ± 0.046; in data set [1] (setting [6]) it was 0.219 ± 0.0041; in data set [1] (setting [7]), 0.0944 ± 0.0098; in data set [1] (setting [8]) it was 0.132 ± 0.041. Further, the figures for the protein stability index in data set [1] (setting [9]) and in data set [2] were 0.186 ± 0.0021 and 0.204 ± 0.097, respectively.

As to AFPSSVILMVFS, the protein stability index in data set [1] (setting [3]) is 0.323 ± 0.036; in data set [1] (setting [4]), 0.32 ± 0.034; in data set [1] (setting [5]), 0.29 ± 0.032; in data set [1] (setting [6]), 0.425 ± 0.0063; in data set [1] (setting [7]), 0.228 ± 0.0063; in data set [1] (setting [8]), 0.287 ± 0.018. Moreover, the protein stability index worked out at 0.3872 ± 0.0029 in data set [1] (setting [9]) and 0.332 ± 0.019 in data set [2].

AFVVYSGSHGLV: the protein stability index is 0.686 ± 0.0094 in data set [1] (setting [3]); 0.75 ± 0.032 in data set [1] (setting [4]); 0.659 ± 0.014 in data set [1] (setting [5]); 0.7518 ± 0.0027 in data set [1] (setting [6]); 0.648 ± 0.011 in data set [1] (setting [7]); 0.654 ± 0.014 in data set [1] (setting [8]). Besides, the protein stability index is 0.7186 ± 0.003 in data set [1] (setting [9]) and 0.57 ± 0.2 in data set [2].

Consider AGALAVALPCIC, for which the protein stability index was found to be 0.493 ± 0.011 in data set [1] (setting [3]); 0.506 ± 0.018 in data set [1] (setting [4]); 0.399 ± 0.03 in data set [1] (setting [5]); 0.531 ± 0.011 in data set [1] (setting [6]); 0.316 ± 0.0093 in data set [1] (setting [7]); 0.358 ± 0.028 in data set [1] (setting [8]). The protein stability index amounted to 0.48 ± 0.011 in data set [1] (setting [9]) and 0.5 ± 0.046 in data set [2].

AGGGGRFWVCVG: the protein stability index in data set [1] (setting [3]) turned out to be 0.656 ± 0.027; in data set [1] (setting [4]) it was 0.7348 ± 0.0059; in data set [1] (setting [5]), 0.6377 ± 0.0058; in data set [1] (setting [6]), 0.726 ± 0.02; in data set [1] (setting [7]) it was 0.215 ± 0.00078; in data set [1] (setting [8]), 0.258 ± 0.028. Besides, the figures for the protein stability index in data set [1] (setting [9]) and in data set [2] were 0.5539 ± 0.0019 and 0.364 ± 0.11, respectively.

Consider ALLVLTVSYVFS, for which the protein stability index in data set [1] (setting [3]) is 0.045 ± 0.011; in data set [1] (setting [4]), 0.0772 ± 0.044; in data set [1] (setting [5]), 0.0924 ± 0.028; in data set [1] (setting [6]) it was 0.188 ± 0.0081; in data set [1] (setting [7]) it was 0.057 ± 0.035; in data set [1] (setting [8]), 0.0839 ± 0.013. The protein stability index in data set [1] (setting [9]) turned out to be 0.153 ± 0.031; in data set [2] it was 0.167 ± 0.022.

For ALVWYSLSIIVN, the protein stability index in data set [1] (setting [3]) worked out at 0.0193 ± 0.0028; in data set [1] (setting [4]), 0.0815 ± 0.086; in data set [1] (setting [5]) it was 0.0515 ± 0.03; in data set [1] (setting [6]), 0.0682 ± 0.0034; in data set [1] (setting [7]), 0.0397 ± 0.0011; in data set [1] (setting [8]) it was 0.0403 ± 0.021. The figures for the protein stability index in data set [1] (setting [9]) and in data set [2] were 0.0736 ± 0.04 and 0.205 ± 0.064, respectively.

On to APGGRGAAGPSC, for which the protein stability index in data set [1] (setting [3]) stood at 0.67 ± 0.06; in data set [1] (setting [4]) it was 0.7207 ± 0.0065; in data set [1] (setting [5]), 0.631 ± 0.036; in data set [1] (setting [6]), 0.751 ± 0.033; in data set [1] (setting [7]), 0.639 ± 0.021; in data set [1] (setting [8]), 0.655 ± 0.033. The protein stability index is 0.704 ± 0.018 in data set [1] (setting [9]) and 0.69 ± 0.029 in data set [2].
